Experimental data reported in publication PMC9786172 (Molecules, 2022).

Legend:
in vivo = test: in vivo; design: species or system Sprague-Dawley rat; details: rat
Method: Chromatographic analysis was performed on a Shimadzu Nexera LC-30AD UPLC system, and mass spectrometric detection was performed on an LCMS-8050 triple quadrupole mass spectrometer (Shimadzu Co., Kyoto, Japan) in the positive ESI and MRM mode. […] The gradient elution of the mobile phase consisting of 0.1% formic acid in water (solvent A) and 0.1% formic acid in acetonitrile (solvent B) was performed at a flow rate of 0.3 mL/min as follows (solvent A:solvent B, v/v): maintained at 19.3 for 0.01 min; ramped from 19.3 to 39.6 for 2.49 min; maintained at 39.6 for 0.01 min; ramped from 39.6 to 90 for 2.99 min; reverted to 19.3 for 0.01 min; and maintained for 1.99 min (total run time: 7.5 min). The ion source parameters were set as follows: nebulizing gas flow, 3 L/min; drying gas flow, 10 L/min; heating gas flow, 10 L/min; interface temperature, 300 °C; desolvation temperature, 250 °C; and heating block temperature, 400 °C. […] Rats underwent surgical implantation of a cannula in the femoral artery under anesthesia, as previously described. The LOC was dissolved in phosphate-buffered saline (pH 5.7). […] A blood sample of approximately 0.3 mL was collected via femoral artery cannulation at various time points (0, 1, 3, 5, 10, 20, 30, 60, 90, 120, 180, 240, 360, 480, and 600 min), then collected in heparin pre-treated microcentrifuge tubes. These blood samples were centrifuged at 4000× g for 10 min to obtain plasma and were frozen at −20 °C until analysis. Non-compartmental analysis was performed using Phoenix WinNonlin ver. 3.1 (Certara USA Inc., Princeton, NJ, USA) to estimate the following pharmacokinetic parameters: AUClast; total area under the plasma concentration versus time curve from time zero to time infinity (AUCinf); Cmax; Tmax; t1/2; and MRTinf. Values were obtained directly from the concentration–time plot. All values are reported as the mean ± standard deviation.

[1] = in vivo; cited from earlier work
[2] = Stability of analytes in rat plasma samples (method validation)
Method: QC samples were prepared using the same process as that used for the calibration standards.
Plasma samples (100 µL) were mixed with 300 µL of 5% formic acid (in water) and vortexed for 5 min. Then, 500 µL acetonitrile of containing 20 ng/mL IS was added to the resultant mixture and vortexed for 5 min. After centrifugation at 14,500× g for 10 min at 4 °C, 800 µL of the supernatant was collected, dried under vacuum using a SpeedVac (Eyela, Tokyo, Japan), reconstituted with 50 μL of methanol, and injected into the LC-MS/MS system.
Using the calibration standard and QC samples, the present LC-MS/MS method was validated in terms of its selectivity, LLOQ, linearity, accuracy, precision, recovery, and stability according to the United States Food and Drug Administration guidelines for bioanalytical method validation [20].
Stability was determined under various analytical handling and storage conditions, such as bench-top, freeze–thaw, post-preparative, and long-term storage, at two QC levels (LQC and HQC).

| Calculated plasma concentration at 60 min after subcutaneous administration of LOC (in vivo) [ng/mL] | SMILES | Tmax (in vivo; male, Sprague-Dawley, sc) [min] | half-life (in vivo; male, Sprague-Dawley, sc) [min] | MRTinf in the intravenous group [1] [min] | level at 1 h (in vivo; male, Sprague-Dawley, sc, 0.122 mg/kg) [ng/mL] | Autosampler stability (percentage of drug remaining), LQC ([2]; rat plasma samples, post-preparative, 3 ng/mL, 10 °C for 24 h in the autosampler, LC-MS/MS, mean ± SD, n = 5) [%] | Autosampler stability (percentage of drug remaining), HQC ([2]; rat plasma samples, post-preparative, 800 ng/mL, 10 °C for 24 h in the autosampler, LC-MS/MS, mean ± SD, n = 5) [%] | Bench-top stability (percentage of drug remaining), LQC ([2]; rat plasma, 3 ng/mL, room temperature for 3 h, LC-MS/MS, mean ± SD, n = 5) [%] | Freeze-thaw stability (percentage of drug remaining), LQC ([2]; rat plasma, 3 ng/mL, three freezing and thawing cycles every 12 h at −20 °C, LC-MS/MS, mean ± SD, n = 5) [%] | Long-term stability (percentage of drug remaining), LQC ([2]; rat plasma, 3 ng/mL, −20 °C for 30 d, LC-MS/MS, mean ± SD, n = 5) [%] | Bench-top stability (percentage of drug remaining), HQC ([2]; rat plasma, 800 ng/mL, room temperature for 3 h, LC-MS/MS, mean ± SD, n = 5) [%] | Freeze-thaw stability (percentage of drug remaining), HQC ([2]; rat plasma, 800 ng/mL, three freezing and thawing cycles every 12 h at −20 °C, LC-MS/MS, mean ± SD, n = 5) [%] | Long-term stability (percentage of drug remaining), HQC ([2]; rat plasma, 800 ng/mL, −20 °C for 30 d, LC-MS/MS, mean ± SD, n = 5) [%] | Recovery values after exposure to different stability conditions ([2]; rat plasma, 3 and 800 ng/mL, range over bench-top, autosampler, freeze-thaw and long-term conditions) |
| --- | --- | --- | --- | --- | --- | --- | --- | --- | --- | --- | --- | --- | --- | --- |
| 1.86 | CCNC(=O)[C@@H]1CCCN1C(=O)[C@H](CCCNC(=N)N)NC(=O)[C@H](CC(C)C)NC(=O)[C@@H](CC(C)C)NC(=O)[C@H](Cc1ccc(O)cc1)NC(=O)[C@H](CO)NC(=O)[C@H](Cc1c[nH]c2ccccc12)NC(=O)[C@H](Cc1c[nH]cn1)NC(=O)[C@@H]1CCC(=O)N1 [Leuprolide, pyroGlu-His-Trp-Ser-Tyr-D-Leu-Leu-Arg-Pro-NHEt, reference compound] | 15 | 38.2 ± 4.3 | 28.1 |  |  |  |  |  |  |  |  |  |  |
|  | CCCCCCCC/C=C\CCCCCCCC(=O)OC[C@H](NC(=O)[C@H](Cc1c[nH]c2ccccc12)NC(=O)[C@H](Cc1c[nH]cn1)NC(=O)[C@@H]1CCC(=O)N1)C(=O)N[C@@H](Cc1ccc(O)cc1)C(=O)N[C@H](CC(C)C)C(=O)N[C@@H](CC(C)C)C(=O)N[C@@H](CCCNC(=N)N)C(=O)N1CCC[C@H]1C(=O)NCC [LOC] | 300 | 172 ± 66 |  | 11.7 | 102 ± 9 | 92.7 ±1.2 | 105 ± 7 | 107 ± 4 | 91.2 ± 4.0 | 97.7± 2.0 | 107 ± 4 | 93.4 ± 2.6 | 91.2–107% |
